From CN117616043A (BIOGIC DESIGN LTD, dated 2024)
Where a chain is given by its changes, count along the chain named. Values belong to the binder of their own block, whether it stands above or below them.

Tests used:
[1] = target: hTSLP-His (human, UniProt Q969D9 29-159, limits assumed); assay: cell-based or functional assay
[2] = target: 重组人IL-13 (rh-IL-13) (human, UniProt P35225 35-146); assay: cell-based or functional assay
[3] = target: T1, 人TSLP (hTSLP) (human, UniProt Q969D9 29-159); assay: SPR and ELISA, conclusion of Example 3
T1 construct: also called rhTSLP

Chain of 重组人IL-13 (rh-IL-13) (P35225 35-146 limits assumed): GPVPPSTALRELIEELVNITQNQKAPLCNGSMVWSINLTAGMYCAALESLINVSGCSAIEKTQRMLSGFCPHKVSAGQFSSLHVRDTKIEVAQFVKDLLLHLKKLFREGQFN

binding result [3]: binds
B3: BDG33.003 (antibody, V domains shown)
VH: QMQLVESGGGVVQPGRSLRLSCAASGFTFRTYGMHWVRQAPGKGLEWVAVIWYDGSNKHYADSVKGRFTITRDNSKNTLNLQMNSLRAEDTAVYYCARAPQWELTAEAFDIWGQGTMVTVSS
VL: SYVLTQPPSVSVAPGQTARITCGGNLIGSKLVHWYQQKPGQAPVLVVYDDSDRPSLIPERFSGSNSGNTATLTISRVEAGDEADYYCQVWDSSSDGVVFGGGTKLTVL
notes: also called BGD33.003; 克隆C2

IC50 (MUTZ-5细胞pSTAT5抑制) [1]: ~0.013 nM
B5: BDG38.079 (antibody, V domains shown)
VH: B3 VH with T28A, K58T, A97V, E103Y, I111L
VL: SYVLTQPPSVSVAPGETATITCGGNMIGGYLVHWYQQKPGQAPLLVIYDDVDRPDRIPERFSGSNSGNTATLTISRVEAGDEADYYCQVWDHDSNTMVFGGGTKLTVL

Further lines, the binder ahead of its results:

B1: BDG33.023 (antibody, V domains shown)
VH: B3 VH with T28A, K58T, E103Y, T105S, I111L
VL: B3 VL with L56R, S92H, G96H
IC50 (MUTZ5细胞中TSLP依赖性pSTAT5活化的抑制) [1]: 0.013 nM | IC50 (IL-13信号传导级联抑制, HEK-Blue IL-4/IL-13, SEAP) [2]: 1.3 nM

B2: BDG38.074 (antibody, V domains shown)
VH: B3 VH with T28A, Y53D, K58T, A97V, E103Y, I111L
VL: B5 VL with E16Q, G29A, I47V, D55N, D93N, S94T, N95D, T96K
IC50 (MUTZ-5细胞pSTAT5抑制) [1]: ~0.035 nM

B4: BDG33.025 (antibody, V domains shown)
VH: B3 VH with V50D, E103Y, T105V, A108P, I111L
VL: B3 VL
IC50 (IL-13信号传导级联抑制, HEK-Blue IL-4/IL-13, SEAP) [2]: 25 nM
